# Like-named read-outs stand apart in the source and are kept apart here.
# Experiment: Biodistribution, paired DX3puroβ6/DX3puro xenograft tumor mouse model
# Format: in vivo, mice
# Settings: female, athymic nude, iv, total radioactivity, γ-counter, mean ± SD; for tissue uptake at 4 h / tissue uptake at 24 h / tissue uptake at 48 h: i.v.
# Procedure: The biodistribution of [^64Cu]PDC-1 confirmed the αvβ6-selective tumor accumulation, with 4.46 ± 0.91% ID/g in the DX3puroβ6 (+) tumor at 4 h vs 0.56 ± 0.12% ID/g in the DX3puro (−) tumor (ratio = 8:1; Figure 6A, Table S3). […] For the BxPC-3 tumor, the uptake went from 4.61 ± 1.44% ID/g at 4 h to 3.73 ± 0.44 and 2.93 ± 0.80% ID/g, at 24 and 48 h, respectively (4 to 48 h: P = 0.054; Figure 6). […] Clearance from the blood was rapid, resulting in αvβ6 (+) tumor/blood ratios of ≥32:1 at 4 h (Table S5). [^64Cu]PDC-1 primarily cleared through the kidneys, from 50 to 64% ID/g at 4 h to ≤25% ID/g at 48 h (Figure 6). […] Accumulation in the liver remained steady between 1.5 and 2.2% ID/g at 4 to 48 h, and uptake in other organs such as muscle (≤0.9% ID/g) and pancreas (≤0.5% ID/g) was low at all time points (Figure 6).
# All animal procedures conformed to the Animal Welfare Act and were approved by the University of California Davis Institutional Animal Care and Use Committee. All mice used for in vivo work were female athymic nude mice (6–8 weeks old) purchased from Charles River Laboratories (Wilmington, MA). For PET imaging and biodistribution studies, female athymic nude mice (6–8 weeks old) were injected subcutaneously with 3 × 10^6 DX3puro and 3 × 10^6 DX3puroβ6 cells in serum free DMEM on the right and left flank, respectively, or with 5 × 10^6 BxPC-3 cells in serum free RPMI 1640/Matrigel (1/1 v/v). Studies commenced once tumors reached a maximum diameter of ∼0.5 cm, approximately 3 weeks after inoculation. Food and water were available ad libitum. [^64Cu]PDC-1 was formulated in isotonic 0.9% saline to pH = 7.2 and administered intravenously (i.v.) via a catheter into the tail vein.
# Aliquots of the formulated [^64Cu]PDC-1 in isotonic 0.9% saline (4.81–5.74 MBq, 1.7–2.1 μg, 0.26–0.31 nmol, 100 μL, pH 7.2) were injected i.v. as described above. Following the conscious uptake period, the mice were anesthetized (5% isoflurane), euthanized, and dissected (n ≥ 3/model/time point [4, 24, and 48 h]; the 48 h time point also included the imaging animals sacrificed after the PET scans). Tissues were collected, washed, weighed, and radioactivity measured in a γ-counter. Calibrated, decay-corrected radioactivity was expressed as the percentage of injected dose per gram of tissue (% ID/g). Data are reported as mean ± SD. The mean weights and standard deviation of the DX3puroβ6/DX3puro paired tumor model biodistribution mice were 24.3 ± 1.4 g at 4 h, 28.2 ± 2.9 g at 24 h, and 27.7 ± 2.6 g at 48 h. The mean weights and standard deviation of the BxPC-3 tumor model biodistribution mice were 25.1 ± 1.9 g at 4 h, 27.0 ± 1.1 g at 24 h and 27.1 ± 3.2 g at 48 h. For in vivo blocking studies, DOTA-2 (50 mg/kg, 205 nmol, 1.4 mg in 100 μL 0.9% saline) was injected i.v. into two animals/tumor model 10 min prior to [^64Cu]PDC-1. The animals were sacrificed after 4 h, tissues collected, washed, weighed, and radioactivity measured in a γ-counter. The mean weights and standard deviation for the blocking mice were 24.6 ± 0 and 27.9 ± 0.3 g for the DX3puroβ6/DX3puro paired and BxPC-3 tumor models, respectively.
# Biodistribution data of [64Cu]PDC-1 in paired DX3puroβ6/DX3puro tumor model.
# Table S3. Biodistribution of [ 64Cu]PDC-1 in mice bearing paired DX3puroβ6/DX3puro xenograft tumors.
# Tissue uptake is expressed as the mean of the percentage of injected dose per gram of tissue ± standard
# deviation (n = 4/ time point; n = 9 at 48 h); an = 3, bn = 8, cn = 7.
compound,measurement,setting,value
"CC[C@H](C)[C@@H]([C@@H](CC(=O)N1CCC[C@H]1[C@H](OC)[C@@H](C)C(=O)N[C@H](C)[C@@H](O)c1ccccc1)OC)N(C)C(=O)[C@@H](NC(=O)[C@H](C(C)C)N(C)C(=O)OCc1ccc(NC(=O)[C@H](CCCNC(N)=O)NC(=O)[C@@H](NC(=O)CCOCCOCCNC(=O)CCN2C(=O)CC(SC[C@H](NC(=O)CN3CCN(CC(=O)O)CCN(CC(=O)O)CCN(CC(=O)O)CC3)C(=O)NCCOCCOCCOCCOCCOCCOCCOCCOCCOCCOCCOCCOCCOCCOCCOCCOCCOCCOCCOCCOCCOCCOCCOCCOCCOCCOCCOCCOCCC(=O)N[C@@H](CC(N)=O)C(=O)N[C@@H](C)C(=O)N[C@H](C(=O)N3CCC[C@H]3C(=O)N[C@@H](CC(N)=O)C(=O)N[C@@H](CC(C)C)C(=O)N[C@@H](CCCNC(=N)N)C(=O)NCC(=O)N[C@@H](CC(=O)O)C(=O)N[C@@H](CC(C)C)C(=O)N[C@@H](CCC(N)=O)C(=O)N[C@H](C(=O)N[C@@H](CC(C)C)C(=O)N[C@@H](C)C(=O)N[C@@H](CCC(N)=O)C(=O)N[C@@H](CCCNC(=N)N)C(=O)N[C@H](C(=O)N[C@@H](C)C(=O)N[C@@H](CCCNC(=N)N)C(=O)N[C@H](C(=O)NCCOCCOCCOCCOCCOCCOCCOCCOCCOCCOCCOCCOCCOCCOCCOCCOCCOCCOCCOCCOCCOCCOCCOCCOCCOCCOCCOCCOCCC(N)=O)[C@@H](C)O)C(C)C)C(C)C)C(C)C)C2=O)C(C)C)cc1)C(C)C (stereo partly drawn) [[^64Cu]PDC-1, metal not drawn]",tissue uptake at 4 h,"DX3puro (αvβ6 −) tumor, 4 h p.i., n = 4, read-out: DX3puro (αvβ6 −) tumor uptake",0.56 ± 0.12 %ID/g
same,tissue uptake at 24 h,"DX3puro (αvβ6 −) tumor, 24 h p.i., n = 3, read-out: DX3puro (αvβ6 −) tumor uptake",1.03 ± 0.12 %ID/g
same,tissue uptake at 48 h,"DX3puro (αvβ6 −) tumor, 48 h p.i., n = 8, read-out: DX3puro (αvβ6 −) tumor uptake",0.74 ± 0.2 %ID/g
same,tissue uptake at 4 h,"DX3puroβ6 (αvβ6 +) tumor, 4 h p.i., n = 4, read-out: DX3puroβ6 (αvβ6 +) tumor uptake",4.46 ± 0.91 %ID/g
same,tissue uptake at 24 h,"DX3puroβ6 (αvβ6 +) tumor, 24 h p.i., n = 4, read-out: DX3puroβ6 (αvβ6 +) tumor uptake",3.39 ± 0.56 %ID/g
same,tissue uptake at 48 h,"DX3puroβ6 (αvβ6 +) tumor, 48 h p.i., n = 9, read-out: DX3puroβ6 (αvβ6 +) tumor uptake",2.53 ± 0.37 %ID/g
same,tissue uptake at 4 h,"bladder, 4 h p.i., n = 4, read-out: Bladder uptake",2.12 ± 0.62 %ID/g
same,tissue uptake at 24 h,"bladder, 24 h p.i., n = 4, read-out: Bladder uptake",1.65 ± 0.44 %ID/g
same,tissue uptake at 48 h,"bladder, 48 h p.i., n = 9, read-out: Bladder uptake",1.66 ± 0.28 %ID/g
same,tissue uptake at 4 h,"blood, 4 h p.i., n = 4, read-out: Blood uptake",0.14 ± 0.02 %ID/g
same,tissue uptake at 24 h,"blood, 24 h p.i., n = 4, read-out: Blood uptake",0.29 ± 0.03 %ID/g
same,tissue uptake at 48 h,"blood, 48 h p.i., n = 9, read-out: Blood uptake",0.34 ± 0.09 %ID/g
same,tissue uptake at 4 h,"bone, 4 h p.i., n = 4, read-out: Bone uptake",0.43 ± 0.18 %ID/g
same,tissue uptake at 24 h,"bone, 24 h p.i., n = 4, read-out: Bone uptake",0.38 ± 0.08 %ID/g
same,tissue uptake at 48 h,"bone, 48 h p.i., n = 9, read-out: Bone uptake",0.33 ± 0.1 %ID/g
same,tissue uptake at 4 h,"brain, 4 h p.i., n = 4, read-out: Brain uptake",0.04 ± 0.01 %ID/g
same,tissue uptake at 24 h,"brain, 24 h p.i., n = 4, read-out: Brain uptake",0.07 ± 0.01 %ID/g
same,tissue uptake at 48 h,"brain, 48 h p.i., n = 9, read-out: Brain uptake",0.09 ± 0.03 %ID/g
same,tissue uptake at 4 h,"gall bladder, 4 h p.i., n = 4, read-out: Gall bladder uptake",3.64 ± 0.79 %ID/g
same,tissue uptake at 24 h,"gall bladder, 24 h p.i., n = 4, read-out: Gall bladder uptake",3.16 ± 0.49 %ID/g
same,tissue uptake at 48 h,"gall bladder, 48 h p.i., n = 9, read-out: Gall bladder uptake",1.42 ± 0.63 %ID/g
same,tissue uptake at 4 h,"heart, 4 h p.i., n = 4, read-out: Heart uptake",0.82 ± 0.17 %ID/g
same,tissue uptake at 24 h,"heart, 24 h p.i., n = 4, read-out: Heart uptake",0.84 ± 0.15 %ID/g
same,tissue uptake at 48 h,"heart, 48 h p.i., n = 9, read-out: Heart uptake",0.85 ± 0.18 %ID/g
same,tissue uptake at 4 h,"kidney, 4 h p.i., n = 4, read-out: Kidney uptake",63.9 ± 12.5 %ID/g
same,tissue uptake at 24 h,"kidney, 24 h p.i., n = 4, read-out: Kidney uptake",41.2 ± 4.47 %ID/g
same,tissue uptake at 48 h,"kidney, 48 h p.i., n = 9, read-out: Kidney uptake",22.9 ± 5.48 %ID/g
same,tissue uptake at 4 h,"large intestines, 4 h p.i., n = 4, read-out: Lg. Intestines uptake",6.25 ± 0.74 %ID/g
same,tissue uptake at 24 h,"large intestines, 24 h p.i., n = 4, read-out: Lg. Intestines uptake",3.98 ± 0.83 %ID/g
same,tissue uptake at 48 h,"large intestines, 48 h p.i., n = 9, read-out: Lg. Intestines uptake",3.04 ± 0.73 %ID/g
same,tissue uptake at 4 h,"liver, 4 h p.i., n = 4, read-out: Liver uptake",1.34 ± 0.29 %ID/g
same,tissue uptake at 24 h,"liver, 24 h p.i., n = 4, read-out: Liver uptake",2.25 ± 0.59 %ID/g
same,tissue uptake at 48 h,"liver, 48 h p.i., n = 9, read-out: Liver uptake",2.15 ± 0.62 %ID/g
same,tissue uptake at 4 h,"lung, 4 h p.i., n = 4, read-out: Lung uptake",3.08 ± 0.78 %ID/g
same,tissue uptake at 24 h,"lung, 24 h p.i., n = 4, read-out: Lung uptake",2.19 ± 0.42 %ID/g
same,tissue uptake at 48 h,"lung, 48 h p.i., n = 9, read-out: Lung uptake",1.71 ± 0.44 %ID/g
same,tissue uptake at 4 h,"muscle, 4 h p.i., n = 4, read-out: Muscle uptake",0.89 ± 0.11 %ID/g
same,tissue uptake at 24 h,"muscle, 24 h p.i., n = 4, read-out: Muscle uptake",0.56 ± 0.07 %ID/g
same,tissue uptake at 48 h,"muscle, 48 h p.i., n = 9, read-out: Muscle uptake",0.48 ± 0.14 %ID/g
same,tissue uptake at 4 h,"pancreas, 4 h p.i., n = 4, read-out: Pancreas uptake",0.36 ± 0.07 %ID/g
same,tissue uptake at 24 h,"pancreas, 24 h p.i., n = 4, read-out: Pancreas uptake",0.45 ± 0.05 %ID/g
same,tissue uptake at 48 h,"pancreas, 48 h p.i., n = 9, read-out: Pancreas uptake",0.52 ± 0.25 %ID/g
same,tissue uptake at 4 h,"skin, 4 h p.i., n = 4, read-out: Skin uptake",1.96 ± 0.5 %ID/g
same,tissue uptake at 24 h,"skin, 24 h p.i., n = 4, read-out: Skin uptake",1.26 ± 0.36 %ID/g
same,tissue uptake at 48 h,"skin, 48 h p.i., n = 9, read-out: Skin uptake",1 ± 0.34 %ID/g
same,tissue uptake at 4 h,"small intestines, 4 h p.i., n = 4, read-out: Sm. Intestines uptake",4.67 ± 0.66 %ID/g
same,tissue uptake at 24 h,"small intestines, 24 h p.i., n = 4, read-out: Sm. Intestines uptake",2.73 ± 0.28 %ID/g
same,tissue uptake at 48 h,"small intestines, 48 h p.i., n = 9, read-out: Sm. Intestines uptake",1.53 ± 0.21 %ID/g
same,tissue uptake at 4 h,"spleen, 4 h p.i., n = 4, read-out: Spleen uptake",0.21 ± 0.08 %ID/g
same,tissue uptake at 24 h,"spleen, 24 h p.i., n = 4, read-out: Spleen uptake",0.58 ± 0.03 %ID/g
same,tissue uptake at 48 h,"spleen, 48 h p.i., n = 9, read-out: Spleen uptake",0.54 ± 0.12 %ID/g
same,tissue uptake at 4 h,"stomach, 4 h p.i., n = 4, read-out: Stomach uptake",8.97 ± 0.76 %ID/g
same,tissue uptake at 24 h,"stomach, 24 h p.i., n = 4, read-out: Stomach uptake",4.86 ± 0.56 %ID/g
same,tissue uptake at 48 h,"stomach, 48 h p.i., n = 9, read-out: Stomach uptake",3 ± 0.56 %ID/g
same,excreta dose per gram or mL at 4 h,"urine, 4 h p.i., n = 4",13 ± 2.4 %ID/g
same,excreta dose per gram or mL at 24 h,"urine, 24 h p.i., n = 4",4.57 ± 0.87 %ID/g
same,excreta dose per gram or mL at 48 h,"urine, 48 h p.i., n = 7",1.6 ± 0.47 %ID/g

# — article PMC10388305, “Synthesis and Evaluation of a Monomethyl Auristatin E—Integrin αvβ6 Binding Peptide–Drug Conjugate for Tumor Targeted Drug Delivery” (Journal of Medicinal Chemistry, 2023)
